Tests used:
[1] = target: human PD-1 on PD-1-expressing Jurkat effector cells (human, UniProt Q15116 25-288); test: cell-based or functional assay
[2] = target: T1, recombinant human PD-1 His-tag protein (R&D Systems) (human, UniProt Q15116 25-167); test: ELISA, PD-1 His-tag coated on plate, anti-mouse IgG Fc-HRP detection
T1 construct: Bought reagent; Used for the ELISA (coated) and for SPR (analyte); also called PD-1 protein; human PD-1 protein; not shown: His-tag
Description: ELISA technique was used to select hybridoma mini-pools producing anti-PD-1 antibodies using the following procedure. MaxiSorp ELISA plate was coated with PD-1 His-tag (R&D System) in PBS buffer (10 ng/100 μL/well) at 4° C. overnight. […] The culture supernatant of each mini-pool (100 μL) was added to the plate then incubated for 1 hour at 37° C. After washing, the plate was probed with goat anti-mouse IgG Fcγ-HRP (Jackson Immuno Research) diluted 1:8,000 in PBST (100 μL/well) and incubated for 1 hour at 37° C. […] 1 M H₂SO₄ (50 μL/well) was used to stop the reaction. […] Hybridoma mini-pools with absorbance values of more than 1.0 were selected for further screening.
The purified antibodies were 2-fold serial diluted for eleven rounds starting from 2 μg/mL until reaching the final concentration of 0.977 ng/mL. The PD-1 binding activity of purified antibodies was evaluated by ELISA following the procedure mentioned in Example 2. The half-maximal effective concentration (EC₅₀) was calculated using GraphPad Prism® software.

[3] = target: T1, recombinant human PD-1 His-tag protein …; test: binding kinetics (method not described at the table; presumably SPR as in Example 8)
[4] = target: T1, recombinant human PD-1 His-tag protein …; test: SPR, Biacore T200, as in Example 8 (antibody on Protein G chip, PD-1 His-tag injected)
Description: The Biacore T200 instrument, equipped with a Protein G sensor chip (GE Healthcare), was used to determine the binding kinetics between chimeric anti-PD-1 antibodies and PD-1 protein. Each purified chimeric anti-PD-1 antibody (1 μg/mL) was injected into the chip with a flow rate of 30 μL/min for 60 sec. […] The HBS-EP+buffer (GE Healthcare) was used as a buffer blank and diluent. The association constant (kₒₙ), dissociation constant (koff), and equilibrium constant (KD) values were calculated using Biacore T200 evaluation software (version 3.1) with a 1:1 Langmuir binding model curve fitting.

Chain of human PD-1 on PD-1-expressing Jurkat effector cells (Q15116 25-288): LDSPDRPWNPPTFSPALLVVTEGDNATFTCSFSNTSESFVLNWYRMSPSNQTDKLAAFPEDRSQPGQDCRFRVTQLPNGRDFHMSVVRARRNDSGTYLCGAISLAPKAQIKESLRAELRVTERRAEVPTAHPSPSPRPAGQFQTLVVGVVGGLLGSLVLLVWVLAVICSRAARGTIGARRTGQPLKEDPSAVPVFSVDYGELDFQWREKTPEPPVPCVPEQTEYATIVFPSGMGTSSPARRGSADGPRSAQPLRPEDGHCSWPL
T1 sequence (Q15116 25-167 limits assumed): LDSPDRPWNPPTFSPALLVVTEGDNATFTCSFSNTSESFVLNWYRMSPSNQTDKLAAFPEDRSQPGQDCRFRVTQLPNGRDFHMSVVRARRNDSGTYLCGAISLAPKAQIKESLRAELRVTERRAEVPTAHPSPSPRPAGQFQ

Binder | PD-1/PD-L1 blockade bioassay, IC50 [1] [µg/mL] | EC50 [2] [µg/mL] | Kd [3] [nM] | koff [3] [s⁻¹] | kon [3] [M⁻¹ s⁻¹] | further results
mCUSB0123 (antibody, V domains shown, Mouse monoclonal antibody purified from hybridoma) VH: QVQLQQSGPELVRPGESVKISCKGSGYTFTDYVMHWVKQSHAKSLEWIGVITIYNDITNYNQKFKGKATMTIDKSSSTAYMELARLTSEDSAIYYCAREGYDSYWYFDVWGAGTTVTVSS VL: DVLMTQTPLSLPVSLGDQASISCRSSQTIVHSNGNTYLEWYLQKPGQSPKLLIYKVSNRFSGVPDRFSGSGSGTDFTLKISRVEAEDLGVYYCFQGSHLPYTFGGGTKLEIK | 2.43 | 0.0701 | – | – | – | –
mCUSB0125 (antibody, V domains shown, Mouse monoclonal antibody purified from hybridoma) VH: DVQLRESGPGLVKPSQSLSLTCTVTGYSITSDYAWNWIRQFPGNKLEWMGYIYYSGTTSYNPSLKSRISITRDTSKNQFFLQLNSVTTEDTATYYCARNYGSAFYYFDYWGQGTTLTVSS VL: DILMTQSPSSMSVSLGDTVTITCHASQGISSNIGWLQQKPGKSFKGLIYRGTNLEDGVPSRFSGSGSGADYSLTISSLESEDFADYYCVQYAQFPPTFGGGTKLEIK | 2.71 | 0.109 | – | – | – | –
Modified Seq23 (modified zCUSB0136.8 antibody) (antibody, V domains shown) VH: QVQLQESGPGLVKPSETLSLTCTVSGFSLTVYDIIWIRQSPGKGLEWLGVIWTGGDTNYNSAFMSRLTISKDTSKNQISLKMSSLTAADTAVYYCARDWAYWGQGTLVTVSS VL: DIVLTQSPDSLAVSLGERATISCRASESVDNWGNSFIQWYQQKPGQPPKLLIYFASYLQSGVPDRFSGSGSGTDFTLTISSVQAEDVATYYCHQNNEDPFTFGGGTKLEIK | – | – | 0.0582 | 0.000288 | 4.96e+06 | –
Modified Seq16 (modified zCUSB0136.8 antibody) (antibody, V domains shown) VH: QVQLQESGPGLVKPSETLSLTCTVSGFSLTTYDIIWIRQSPGKGLEWLGVIWTGGDTTYNSAFMSRLTISKDTSKNQISLKMSSLTAADTAVYYCARDWAYWGQGTLVTVSS VL: DIVLTQSPDSLAVSLGERATISCRASESVDNYGNSFIQWYQQKPGQPPKLLIYFASYLQSGVPDRFSGSGSGTDFTLTISSVQAEDVATYYCHQNNEDPFTFGGGTKLEIK | – | – | 0.0266 | 9.31e-05 | 3.5e+06 | –
Modified Seq13 (modified zCUSB0136.8 antibody) (antibody, V domains shown) VH: QVQLQESGPGLVKPSETLSLTCTVSGFSLTTYDIIWIRQSPGKGLEWLGVIWTGGDTTYNSAFMSRLTISKDTSKNQISLKMSSLTAADTAVYYCARDWAYWGQGTLVTVSS VL: DIVLTQSPDSLAVSLGERATISCRASESVDNYGNSFIQWYQQKPGQPPKLLIYFASYLQSGVPDRFSGSGSGTDFTLTISSVQAEDVATYYCHQNNEDPFTFGGGTKLEIK | – | – | 0.0243 | 8.47e-05 | 3.49e+06 | –
zCUSB0136.8-1 (antibody, V domains shown, also called CUSB0136-BMVH.3a with CUSB0136-BMVL.2a) VH: QVQLQESGPGLVKPSETLSLTCTVSGFSLTTYDIIWIRQSPGKGLEWLGVIWTGGDTWYNSAFMSRLTISKDTSKNQISLKMSSLTAADTAVYYCARDWAYWGQGTLVTVSS VL: DIVLTQSPDSLAVSLGERATISCRASESVDNWGNSFIQWYQQKPGQPPKLLIYFASYLQSGVPDRFSGSGSGTDFTLTISSVQAEDVATYYCHQNNEDPFTFGGGTKLEIK | – | – | – | – | – | Kd [4]: 0.0237 nM; koff [4]: 0.000142 s⁻¹; kon [4]: 6e+06 M⁻¹ s⁻¹
zCUSB0136.8-2 (antibody, V domains shown, also called CUSB0136-BMVH.3b with CUSB0136-BMVL.2b) VH: QVQLQESGPGLVKPSETLSLTCTVSGFSLTVYDIIWIRQSPGKGLEWLGVIWTGGDTTYNSAFMSRLTISKDTSKNQISLKMSSLTAADTAVYYCARDWIYWGQGTLVTVSS VL: DIVLTQSPDSLAVSLGERATISCRASESVDNYGNSFIQWYQQKPGQPPKLLIYFASYLQSGVPDRFSGSGSGTDFTLTISSVQAEDVATYYCHQNNEDPFTFGGGTKLEIK | – | – | – | – | – | Kd [4]: 0.0155 nM; koff [4]: 7.27e-05 s⁻¹; kon [4]: 4.68e+06 M⁻¹ s⁻¹
Modified Seq24 (modified zCUSB0136.8 antibody) (antibody, V domains shown) VH: QVQLQESGPGLVKPSETLSLTCTVSGFSLTVYDIIWIRQSPGKGLEWLGVIWTGGDTTYNSAFMSRLTISKDTSKNQISLKMSSLTAADTAVYYCARDWAYWGQGTLVTVSS VL: DIVLTQSPDSLAVSLGERATISCRASESVDNYGNSFIQWYQQKPGQPPKLLIYFASQLQSGVPDRFSGSGSGTDFTLTISSVQAEDVATYYCHQNNEDPFTFGGGTKLEIK | – | – | 0.0618 | 0.000112 | 1.81e+06 | –
Modified Seq25 (modified zCUSB0136.8 antibody) (antibody, V domains shown) VH: QVQLQESGPGLVKPSETLSLTCTVSGFSLTTYDIIWIRQSPGKGLEWLGVIWTGGDTTYNSAFMSRLTISKDTSKNQISLKMSSLTAADTAVYYCARDWAYWGQGTLVTVSS VL: DIVLTQSPDSLAVSLGERATISCRASESVDNYGNSFIQWYQQKPGQPPKLLIYFASHLQSGVPDRFSGSGSGTDFTLTISSVQAEDVATYYCHQNNEDPFTFGGGTKLEIK | – | – | 0.0664 | 0.000145 | 2.18e+06 | –
zCUSB0136.8-4 (antibody, V domains shown, also called CUSB0136-BMVH.3d with CUSB0136-BMVL.2b) VH: QVQLQESGPGLVKPSETLSLTCTVSGFSLTVYDIIWIRQSPGKGLEWLGVIWTGGDTTYNSAFMSRLTISKDTSKNQISLKMSSLTAADTAVYYCARDWMYWGQGTLVTVSS VL: DIVLTQSPDSLAVSLGERATISCRASESVDNYGNSFIQWYQQKPGQPPKLLIYFASYLQSGVPDRFSGSGSGTDFTLTISSVQAEDVATYYCHQNNEDPFTFGGGTKLEIK | – | – | – | – | – | Kd [4]: 0.0159 nM; koff [4]: 7.02e-05 s⁻¹; kon [4]: 4.42e+06 M⁻¹ s⁻¹
zCUSB0136.8-3 (antibody, V domains shown, also called CUSB0136-BMVH.3c with CUSB0136-BMVL.2b) VH: QVQLQESGPGLVKPSETLSLTCTVSGFSLTVYDIIWIRQSPGKGLEWLGVIWTGGDTTYNSAFMSRLTISKDTSKNQISLKMSSLTAADTAVYYCARDWAYWGQGTLVTVSS VL: DIVLTQSPDSLAVSLGERATISCRASESVDNYGNSFIQWYQQKPGQPPKLLIYFASYLQSGVPDRFSGSGSGTDFTLTISSVQAEDVATYYCHQNNEDPFTFGGGTKLEIK | – | – | – | – | – | Kd [4]: 0.0208 nM; koff [4]: 9.31e-05 s⁻¹; kon [4]: 4.48e+06 M⁻¹ s⁻¹
mCUSB0103 (antibody, V domains shown, Mouse monoclonal antibody purified from hybridoma) VH: DVKLVESGGGLVKPGGSLKLSCAASGFTFSSYTMSWVRQTPEKRLEWVAAISGGGSYTYYADSVKGRFTISRDNAKNTLSLQMSSLKSEDTAMYFCTSPYDFAMDYWGQGTSVTVSS VL: DIQMTQTTSSLSASLGDRVTISCRASQDITNYLNWYQQKPDGSVKLLIYYTSRLHSGVPSRFRGSGSGTDYSLTISNLEQEDIATYFCQQGNTLPWTFGGGTKLEIK | 0.843 | 0.0494 | – | – | – | –
mCUSB0136 (antibody, V domains shown, Mouse monoclonal antibody purified from hybridoma) VH: QVQLKESGPGLVAPSQSLSITCTVSGFSLTTYDIIWIRQSPGKGLEWLGVIWTGGDTNYNSAFMSRLSISKDNSKSQIFLKMNSLQTDDTAIYYCVRDWAYWGQGTLVTVST VL: NIVLTQSPASLAVSLGQRATISCRASESVDNYGNSFIQWYQQKPGQPPKLLIYFASNLQSGVPARFSGSGSRTDFTLTIDPVEADDAATYYCHQNNEDPFTFGSGTKLEIK | 1.21 | 0.0342 | – | – | – | –
mCUSB0126 (antibody, V domains shown, Mouse monoclonal antibody purified from hybridoma) VH: VKLVESGGDLVKPGGSLKLSCAASGFPFSSYLMSWVRQTPEKRLEWVAAISGGGRDTYYPDNVKGRFTISRDNARNILYLQMSSLRSEDTAVYYCATRGSYAMDYWGQGTSVTVSS VL: DIQMTQSPASQSASLGESVTITCLASQTIGTWLAWYQQKPGKSPQILIYAATNLADGVPSRFSGSGSGTKFSFKISSLQAEDFVSYYCQQLYSIPWTFGGGTKLEIK | 0.846 | 0.0442 | – | – | – | –
mCUSB0124 (antibody, V domains shown, Mouse monoclonal antibody purified from hybridoma) VH: QIQLVQSGPELKKPGETVKISCKASGYIFTNYGVTWVKQTPGKGLKWMTWINTNTGEPTSAEEFKGRFDFSSETSATTAYLQINNLKNEDTATYFCVRIRENAMDYWGQGTSVTVSS VL: DIQMTQSPASQSASLGESVTITCLASQTIGTWLAWYQQKPGKSPQLLIYAATRLAVGVPSRFSGSGSGTKFSFKISRLQAEDFVSYYCQQLYSTPFTFGSGTKLEIK | 6.58 | 0.104 | – | – | – | –
mCUSB0129 (antibody, V domains shown, Mouse monoclonal antibody purified from hybridoma) VH: VKLVESGGGLVKPGGSLKLSCAASGFPFSSYLMSWVRQTPEKRLEWVAAISGGGRDTYYPDSVKGRFTISRDNARNILYLQMSSLRSEDTALYYCARRGSYAMDYWGQGTSVTVSS VL: DIQMTQSPASQSASLGESVTITCLASQTIGTWLAWYQQKPGKSPQILIYDATNLADGVPSRFSGSGSGTKFSFKISSLQAEDFVSYYCQQLYSIPWTFGGGTKLEIK | 1.83 | 0.074 | – | – | – | –
